Molecular target: thrombin

Question: With recombinant AsKunitz (natural protein) as the substance, how does the inhibition of the enzymatic activity of thrombin on a chromogenic substrate (Vmax against the reaction without inhibitor), IC50 read?
Answer: 650 nM

Source: PMC7901972
